Measurements published in PMC9409550.

Experiments:
Test in all cases: flow cytometry on cells
[1] = molecular target: BANAL-236 RBD, yeast-displayed (bat sarbecovirus BANAL-236)
[2] = molecular target: WIV16 RBD, yeast-displayed (bat sarbecovirus WIV16)
[3] = molecular target: Rs4874 RBD, yeast-displayed (bat sarbecovirus Rs4874)
[4] = molecular target: BANAL-103 RBD, yeast-displayed (bat sarbecovirus BANAL-103)
[5] = molecular target: Khosta-2 RBD, yeast-displayed (bat sarbecovirus Khosta-2)

CDY14HL-Fc1, sequence (Q9BYF1 18-615): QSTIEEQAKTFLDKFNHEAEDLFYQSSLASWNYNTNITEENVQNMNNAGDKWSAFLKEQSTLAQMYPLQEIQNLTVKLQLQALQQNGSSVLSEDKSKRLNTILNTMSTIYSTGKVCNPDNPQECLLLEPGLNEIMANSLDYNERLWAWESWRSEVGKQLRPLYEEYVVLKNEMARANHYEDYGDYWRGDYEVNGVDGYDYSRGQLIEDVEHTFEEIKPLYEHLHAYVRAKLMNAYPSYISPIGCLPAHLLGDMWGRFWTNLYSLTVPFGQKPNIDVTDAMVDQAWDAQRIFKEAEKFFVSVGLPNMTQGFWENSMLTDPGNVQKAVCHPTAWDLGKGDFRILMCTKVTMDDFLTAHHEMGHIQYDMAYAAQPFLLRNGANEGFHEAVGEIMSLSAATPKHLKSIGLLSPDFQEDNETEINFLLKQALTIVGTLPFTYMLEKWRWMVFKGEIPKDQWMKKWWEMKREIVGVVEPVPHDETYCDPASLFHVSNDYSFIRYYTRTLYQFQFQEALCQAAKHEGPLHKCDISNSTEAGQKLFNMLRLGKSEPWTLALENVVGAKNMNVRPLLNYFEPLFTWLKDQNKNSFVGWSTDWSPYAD

“CDY14HL-Fc1 (from UniProt Q9BYF1 18-615) (Fc fusion)” showed a Kd [1] of 240 pM, a Kd [2] of 240 pM and a Kd [3] of 230 pM. The Kd [4] was 300 pM and the Kd [5] was 1900 pM.
